The Human Domainome abundance scans (Beltran et al. 2025)

B1: Transcription factor SOX-4, residues 60 to 127; numbered along this chain, Q06945 (parent)
chain: KRPMNAFMVWSQIERRKIMEQSPDMHNAEISKRLGKRWKLLKDSDKIPFIREAERLRLKHMADYPDYK

Variants of: B1
Assay: abundance fitness (aPCA) (normalised: wild type 0, dead -1); higher = more abundant; growth selection in yeast, the domain comes from the species named
Settings: Homo sapiens

Abundance fitness, by site and new letter:
L34: Q -0.577; G -0.973; C -0.825; E -0.639; F -0.724; I -0.083; R -0.981; M -0.798; W -0.713; S -0.621; T -0.957; P -0.955; V -0.83; H -0.881
I18: Y -0.285
E20: R -0.364; L -0.284; Y -0.88; T -0.296; S -0.497; K -0.439; W -0.626; G -0.343; Q -0.142; A -0.265; M -0.239; C -0.478; D -0.255; N -0.478; H -0.143; F -0.601; I -0.227; P -0.524
R37: Q -0.093; D -0.035; E 0.043; L -0.364; F -0.714; A 0.133; N 0.101; T -0.05; I -0.371; K 0.052; V -0.2; C -0.366; H -0.313; M -0.067; P -0.811
K39: N -0.19; R -0.187; E 0.057; F -0.481; H -0.506; A 0.093; L -0.244; G -0.098; C -0.329; P -0.783; I -0.384; M -0.144
N27: G -0.103; H 0.059; D 0.147; P 0.184; W -0.019; M -0.043; I -0.192; C -0.164; T -0.049; L -0.162; F -0.245; K -0.03; V -0.07; A 0.004; R -0.112; Y -0.179; S 0.07
R33: A 0.121; L 0.192; S -0.1; K 0.048; Q 0.332; E 0.316; P -0.922; D 0.483; N 0.126; C 0.083; Y -0.218; V 0.339; T 0.085; W -0.089; G -0.283; I -0.051
H26: Y -0.652; T 0.154; F -0.713; A 0.113; V -0.039; N 0.289; D 0.191; L -0.1; E 0.024; C 0.127; G -0.082; Q 0.111; W -0.281; I -0.088; S 0.291; P 0.134; M -0.182; K 0.138
S22: H -0.01; W 0.016; G -0.4; P -0.745; F 0.106; R -0.211; L -0.458; K -0.191; D -0.034; E -0.027; M -0.276; V -0.272; T -0.326; A -0.074; Y 0.066
E29: Q -0.367; A -0.199; H -0.879; D -0.074; L -0.518; S -0.539; K -0.691; T -0.348; G -0.628; W -0.84; C -0.394; M -0.225; I -0.916; P -0.162; R -0.883
M19: T -0.338; R -0.236; F -0.257; K 0.007; Y -0.459; H -0.368; G -0.452; Q -0.112; N -0.396; W -0.326; I 0.014; L 0.116; P -0.785; S -0.212; E -0.019; D -0.463; C -0.175; V -0.091
K32: A -0.108; T -0.12; D -0.012; M 0.082; C -0.167; F -0.281; Y -0.062; W -0.243; E 0.183; Q 0.066; V -0.116; R -0.054; L -0.08; G -0.361; H -0.154; S -0.067; I -0.225; P -0.498
K36: E 0.325; N 0.04; H -0.141; F -0.053; C -0.482; P -0.722; D -0.362; L -0.105; R -0.075; G -0.416; S -0.098; I 0.143; V 0.057; A -0.019
A28: W -0.242; T -0.234; K -0.099; V -0.169; I -0.463; R -0.132; Q -0.145; C -0.351; L -0.195; S -0.029; G -0.166; E -0.078; D -0.152
D24: E -0.052; I -0.632; S -0.15; R -0.307; K -0.141; A -0.239; P -0.564; G -0.123; Q -0.114; C -0.335; T -0.206; W -0.188; L -0.251; M -0.214; F -0.134; N -0.123
S31: T 0.047; L -0.045; C -0.027; Q -0.038; R -0.137; D 0.154; K -0.039; I -0.054; P -0.733; G -0.189; M 0.072; F -0.212; N 0.05; V -0.021; H -0.19
W38: G -0.744; T -0.632; Y -0.548; D -0.67; A -1.01; P -0.739; F -1.08; V -0.887; E -0.799; Q -1.02; H -0.548; R -1.16; C -0.849; L -0.989; N -0.874; M -0.985; K -0.708
G35: Q 0.302; D 0.116; P -0.496; N 0.015; I 0.156; E 0.262; R 0.19; V 0.134; A 0.171; T 0.15; L 0.168; C 0.095; Y 0.119; K 0.262; S 0.173; H 0.178; W 0.142
P23: A -0.619; W -0.766; S -0.47; H -0.548; Q -0.482; D -0.564; F -0.97; Y -0.862; E -0.554; L -0.52; N -0.554; R -0.669; M -0.817; V -0.634; I -0.568; T -0.593
Q21: N -0.382; C -0.581; P -0.874; F -0.426; Y -0.63; M -0.244; W -0.884; K -0.204; I -0.128; D -0.346; T -0.085; S -0.163; A -0.169; L -0.349; E -0.062; V -0.2; R -0.267; H -0.282
I30: K -0.999; F -0.912; P -0.976; S -0.858; Y -0.8; W -0.875; D -0.871; A -0.605; H -1.11; Q -0.7; G -0.769; E -0.8; V 0.022; M -0.254; C -0.277; T -0.661
M25: W -0.672; E -0.323; Y -0.679; G -0.713; S -0.416; A -0.019; K -0.216; T -0.189; R -0.591; Q -0.595; C -0.258; I 0.004; V -0.125; D -0.397; F -0.614
